Results as given in publication doi:10.1101/2022.10.06.511153 (bioRxiv, 2022).

Key:
[1] = molecular target: MksE (Corynebacterium glutamicum) (UniProt Q8NLY1); experiment: BLI
[2] = molecular target: MksB (Corynebacterium glutamicum) (UniProt Q8NLY2); experiment: BLI
crystal structure = molecular target: the molecule itself; experiment: crystal structure

MksF (from UniProt Q8NLY0 1-495) (natural protein)
Kd [1]: 2.17 µM
Kd [2]: 4.94 µM

B1: MksG (6xHis-SUMO construct for crystallization) (natural protein, Corynebacterium glutamicum)
chain: MPLFIDDALHRSKKYFHAHLSELLLGEFAGLSLPLHPPTAAKAAADIDATREFIRQWEGRDDVEYAIRNWSPVGLGKTEVPVRLTLNTTEELVVFAQVEDEWSSLHERFSQLSGFTAEVVAKHVSLWRSLSNDDLSKAVLVVDWFLKHPNSGLLKRAVAVEGVHTKWLENHRVLIETLVADKRGEPGRADLGLGDAEARVRLRFHSVDAPAGLTDIEVPLSNLCELQEPQVILMVENLDSFLALPTWPGVTIAWGAGYRAVDIVRGPYFSNGRLLYWGDLDLDGFKILDGVRSHVPHTESVLMNSETVSRWRYLGVADREFKAESFDNLHDFESDALDLLITDGELRIEQERIRLDVAVEEIEKVIRG
stoichiometry N (crystal structure): 2
